{
  "source": "patent US20250236878A1",
  "about": "(priority 2019, published 2025)",
  "molecules": {"B1": {"name": "endochitinase (SEQ ID NO: 778): endochitinase as printed in b921; probably a misprint for SEQ ID NO: 777 (protein, listed as Serratia marcescens)", "chain": "MSTRKAVIGYYFIPTNQINNYTETDTSVVPFPVSNITPAKAKQLTHINFSFLDINSNLECAWDPATNDAKARDVVNRLTALKAHNPSLRIMFSIGGWYYSNDLGVSHANYVNAVKTPASRAKFAQSCVRIMKDYGFDGVDIDWEYPQAAEVDGFIAALQEIRTLLNQQTVADGRQALPYQLTIAGAGGAFFLSRYYSKLAQIVAPLDYINLMTYDLAGPWEKVTNHQAALFGDAAGPTFYNALREANLGWSWEELTRAFPSPFSLTVDAAVQQHLMMEGVPSAKIVMGVPFYGRAFKGVSGGNGGQYSSHSTPGEDPYPSTDYWLVGCEECVRDKDPRIASYRQLEQMLQGNYGYQRLWNDKTKTPYLYHAQNGLFVTYDDAESFKYKAKYIKQQQLGGVMFWHLGQDNRNGDLLAALDRYFNAADYDDSQLDMGTGLRYTGVGPGNLPIMTAPAYVPGTTYAQGALVSYQGYVWQTKWGYITSAPGSDSAWLKVGRVA"}, "B2": {"name": "SEQ ID NO: 772: β-1,3 endoglucanase, Cellulosimicrobium cellulans DK1 (protein)", "chain": "APGDLLWSDEFDGAAGSAPNPAVWNHETGAHGWGNAELQNYTASRANSALDGQGNLVITARREGDGSYTSARMTTQGKYQPQYGRIEARIQIPRGQGIWPAFWMLGGSFPGTPWPSSGEIDIMENVGFEPHRVHGTVHGPGYSGGSGITGMYQHPQGWSFADTFHTFAVDWKPGEITWFVDGQQFHRVTRASVGANAWVFDQPFFLILNVAVGGQWPGYPDGTTQLPQQMKVDYVRVYDNGSGSSNPGNPGTGLPTGTGAVRAANGMCIDVPWADPTDGNPVQIVTCSGNAAQTWTRGSDGTVRALGKCLDVRDGSTTRGAAVQVWTCNGTGAQKWAYDAGSKALRNPQSGLCLDATGGAPLHDGQRLQTWTCNGTTAQQWTL", "modifications": "Cellulosimicrobium cellulans strain DK-1", "notes": "β-1,3 endoglucanase, Cellulosimicrobium cellulans DK1"}, "B3": {"name": "SEQ ID NO: 732: β-1,3 endoglucanase, Paenibacillus species (protein)", "chain": "AETAGTTITSMSYFSTADGPIITKSGVGQASYGFVMPIFNGGSATWNDVAQDLGVKVKVNGSWVDIDSVSSFVYNQNWGHWNDGGFTGYWFTLSATTEIQLYSKANEVTLEYSLVFQNINKTTITAMTPTQGPQITAGFTGGAGFTYPIFNHDPAITYAAVADDLKVYVKPVNSSQWIDIDNNAASGWIYDQNFGQFTDGGGGYWFNVTESINVKLESKTSSTNIVYTISFNEPVRNSYVLTPYEGTTFTADASGAIGIPLPKIDGGAPIGTELGNFVYQININGQWVDLDNSSQSGFVYSANGYNNMSAANQWGYWADHIYGLWFQPIQVDMQIRIGYPLNGQAGGSVGSNFVNYTLIGNPDAPRPDVNDQEDIPIGTPNDSAIEGMNLIWQDEFNGTALDQSKWNYETGYYLNDDPNTWGWGNSELQHYTDRAQNVFVQDGKLNIKALNEPKSFPQDPSRYAQYSSGKINTKDHFSLKYGRVDFRAKLPTGNGIWPALWMLPQDNVYGTWASSGEIDVMEAKGRLPGSTSGAVHFGGQWPTNRYLSGEYHFPEGQTFANDYHVYSVVWEEDNIKWYVDGKFFFKVTRDQWYSAAAPNNPNAPFDQPFYLIMNLAIGGTFDGGRTPDPSDIPATMQVDYVRVYKEGEGGGQNPGNVPVTGVTVNPTTAQVEVGQSVQLNASVAPSNATNKQVTWSVSGSSIASVSPNGLVTGLAQGTTTVTATTADGNKAASATITVAPAPSTVIVIGDEVKGLKKIGDDLLFYVNGATFADLHYKVNNGGQLNVAMAPTGNGNYTYPVHNLKHGDTVEYFFTYNPGQGALDTPWQTYVHGVTQGTPE", "modifications": "Paenibacillus spp.", "notes": "β-1,3 endoglucanase, Paenibacillus species"}, "B4": {"name": "β-1,3-endoglucanase (bglH) Paenibacillus immobilized enzyme (SEQ ID NO: 732) (protein)", "chain": "B3 chain", "modifications": "immobilized; Paenibacillus spp."}, "B5": {"name": "Endochitinase (ChiC) Bacillus thuringiensis immobilized enzyme (SEQ ID NO: 777) (protein, listed as Bacillus thuringiensis)", "chain": "DSPKQSQKIVGYFPSWGVYGRNYQVADIDASKLTHLNYAFADICWKGKHGNPSTHPDNPNKQTWNCKESGVPLQNKEVPNGTLVLGEPWADVTKSYPGSGTTWEDCDKYARCGNFGELKRLKAKYPHLKTIISVGGWTWSNRFSDMAADEKTRKVFAESTVAFLRAYGFDGVDLDWEYPGVETIPGGSYRPEDKQNFTLLLQDVRNALNKAGAEDGKQYLLTIASGASQRYADHTELKKISQILDWINIMTYDFHGGWEATSNHNAALYKDPNDPAANTNFYVDGAIDVYTNEGVPVDKLVLGVPFYGRGWKSCGKENNGQYQPCKPGSDGKLASKGTWDDYSTGDTGVYDYGDLTANYVNKNGFVRYWNDTAKVPYLYNATTGTFISYDDNESMKYKTDYIKTKGLSGAMFWELSGDCRTSPKYSCSGPKLLDTLVKELLGGPINQKDTEPPTNVKNIIVTNKTSSSVQLSWTASTDNVGVTEYEITAGEEKWSATTNSITIKNLKPNTEYTFSVIAKDASGNKSHPTALTVKTDEANTTPPDGNGTATFSVTSNWGSGYNFSIIIKNNGTIPIKNWKLEFDYSGNLTQVWDSKISSKTNNHYVITNAGWNGEIPPGGSITIGGAGTGNPAELLNAVISEN", "modifications": "immobilized"}},
  "system": "Cladosporium cladosporioides",
  "format": "in vivo",
  "details": "for Observed mold growth spots (out of 18 inoculated) / Percent of mold growth relative to surfactant only control: 6 days",
  "data": [
    {"molecule": "B1", "values": [
      {"measurement": "mold growth relative to the surfactant only control", "setting": "in vivo", "value": 83, "unit": "%"}
    ]},
    {"molecule": "B2", "values": [
      {"measurement": "mold growth compared to the surfactant control treatment", "setting": "in vivo", "value": 85, "unit": "%"}
    ]},
    {"molecule": "B3", "values": [
      {"measurement": "mold growth relative to the surfactant only control", "setting": "in vivo", "value": 61, "unit": "%"}
    ]},
    {"molecule": "B4", "values": [
      {"measurement": "Observed mold growth spots (out of 18 inoculated)", "value": "11 spots (out of 18 inoculated)"},
      {"measurement": "Percent of mold growth relative to surfactant only control", "value": 61, "unit": "%"}
    ]},
    {"molecule": "B5", "values": [
      {"measurement": "Observed mold growth spots (out of 18 inoculated)", "value": "15 spots (out of 18 inoculated)"},
      {"measurement": "Percent of mold growth relative to surfactant only control", "value": 83, "unit": "%"}
    ]}
  ]
}
